Results taken from paper PMC3634016 (2013).

Target: Ca^2+-CaM pre-bound to the mammalian Cav1.2 IQ peptide (rat | human, UniProt P0DP29 1-149)
Assay: ITC; Ca2+; CaM pre-bound to Cav1.2 IQ

SWQAAIDAARQAKLMGS [mammalian NSCaTE_(Cav1.2) peptide] was tested, and the Kd was 1800 nM.
